This series addresses EntF (E. coli enterobactin synthetase component), apo form, P11454.

EntF (E. coli enterobactin synthetase component), apo form, P11454, sequence (P11454 whole entry): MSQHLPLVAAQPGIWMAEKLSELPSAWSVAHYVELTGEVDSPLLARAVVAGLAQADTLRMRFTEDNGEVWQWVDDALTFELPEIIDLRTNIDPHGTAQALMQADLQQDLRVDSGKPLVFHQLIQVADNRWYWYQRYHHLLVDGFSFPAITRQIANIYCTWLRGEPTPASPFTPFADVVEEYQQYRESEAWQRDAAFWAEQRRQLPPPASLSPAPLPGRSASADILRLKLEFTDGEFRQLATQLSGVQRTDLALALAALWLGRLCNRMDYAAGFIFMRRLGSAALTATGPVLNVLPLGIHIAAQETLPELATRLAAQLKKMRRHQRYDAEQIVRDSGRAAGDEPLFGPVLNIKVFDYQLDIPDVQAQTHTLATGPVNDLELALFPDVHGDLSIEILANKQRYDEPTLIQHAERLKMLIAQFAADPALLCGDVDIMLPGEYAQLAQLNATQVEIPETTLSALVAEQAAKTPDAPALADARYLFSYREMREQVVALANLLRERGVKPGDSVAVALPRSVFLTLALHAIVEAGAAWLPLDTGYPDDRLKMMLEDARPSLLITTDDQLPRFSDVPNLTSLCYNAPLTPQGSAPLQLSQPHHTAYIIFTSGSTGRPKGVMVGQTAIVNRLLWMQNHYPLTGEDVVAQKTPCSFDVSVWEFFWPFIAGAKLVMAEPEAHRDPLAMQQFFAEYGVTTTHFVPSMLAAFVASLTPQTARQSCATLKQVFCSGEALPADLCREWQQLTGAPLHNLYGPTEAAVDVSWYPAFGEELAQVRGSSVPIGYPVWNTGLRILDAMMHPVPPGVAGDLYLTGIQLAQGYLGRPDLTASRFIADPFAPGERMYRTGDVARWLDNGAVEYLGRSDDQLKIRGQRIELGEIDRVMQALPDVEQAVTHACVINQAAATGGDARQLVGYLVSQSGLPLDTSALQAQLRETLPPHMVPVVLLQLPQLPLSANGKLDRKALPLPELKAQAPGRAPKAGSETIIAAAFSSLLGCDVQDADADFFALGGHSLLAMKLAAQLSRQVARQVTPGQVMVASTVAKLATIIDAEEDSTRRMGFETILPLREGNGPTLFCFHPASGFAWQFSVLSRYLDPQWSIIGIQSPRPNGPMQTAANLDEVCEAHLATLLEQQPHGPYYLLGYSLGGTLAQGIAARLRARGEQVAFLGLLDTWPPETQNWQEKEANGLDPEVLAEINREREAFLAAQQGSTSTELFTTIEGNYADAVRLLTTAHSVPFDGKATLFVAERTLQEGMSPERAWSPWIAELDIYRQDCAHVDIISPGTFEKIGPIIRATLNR

B1: o195 (E. coli ORF of unknown function), recombinant from pET28b-o195 (protein)
chain: MYRIVLGKVSTLSAAPLPPGLREQAPQGPRRERWLAGRALLSHTLSPLPEIIYGEQGKPAFAPEMPLWFNLSHSGDDIALLLSDEGEVGCDIEVIRPRANWRWLANAVFSLGEHAEMDAVHPDQQLEMFWRIWTRKEAIVKQRGGSAWQIVSVDSTYHSSLSVSHCQLENLSLAICTPTPFTLTADSVQWIDSVN
Turning to B1, the “time course of incorporation of radiolabel into EntF” value is “EntF undergoes almost no modification in the presence of 15-fold higher concentrations of ACPS and o195”.

Values taken from patent publication US7192735.
